Literature values as cited in paper PMC4072998.

Assays:
Glu14 [1] = molecular target: T1, Glu14 (UniProt position 14, GAILAEVIGTT); assay: other
Glu14 [2] = molecular target: T1, Glu14; assay: kinetics; conditions: pre-equilibrium; free protein binding substrate
Asp14 = Asp14 (UniProt position 14, GAILADVIGTT); assay: kinetics; conditions: pre-equilibrium; free protein binding substrate

| Substance | pKa (Glu14 [1]; equilibrium, substrate-induced deprotonation) | pKa (Glu14 [1]; substrate-free protein competing for H+ versus TPP+) | pKa (Glu14 [2]) | pKa (Asp14) |
| --- | --- | --- | --- | --- |
| EmrE (small multidrug resistance transporter) (Escherichia coli) | 8.3-8.5 | 7-8 | ~7.3 |  |
| EmrE E14D mutant (Escherichia coli; E14D) |  |  |  | 5.8 |
